Laboratory results as given in article PMC7092852 (Biochemical and Biophysical Research Communications, 2005).

Target: the molecule itself
Assay: SEC

B1: 2-helix protein (native single chain NHR + CHR of syncytin, amino acids 349-445) (domain or fragment)
chain: not shown
  stoichiometry N: 3
